Read-outs that look alike come from different tables or passages of the source.
Experiments:
[1] = target: T1, Human Tau, hTau40 (isoform F, the longest isoform of Tau) (human, UniProt P10636-8 1-441); experiment: other fluorescence titration
[2] = target: T1, Human Tau, hTau40 (isoform F, the …); experiment: other fluorescence titration; remark: listed apart in the source

- Kd [1]: 4.8 ± 1 µM
- Kd [2]: 5.2 ± 3 µM
B1: Human Hsp90β (natural protein)
chain: not shown
